T1: monkey PD-1 with mFc (monkey PD-1-mFc) (monkey)
T1 construct: also called monkey PD-1 dimer; MfPD-1 dimer
T1 chain: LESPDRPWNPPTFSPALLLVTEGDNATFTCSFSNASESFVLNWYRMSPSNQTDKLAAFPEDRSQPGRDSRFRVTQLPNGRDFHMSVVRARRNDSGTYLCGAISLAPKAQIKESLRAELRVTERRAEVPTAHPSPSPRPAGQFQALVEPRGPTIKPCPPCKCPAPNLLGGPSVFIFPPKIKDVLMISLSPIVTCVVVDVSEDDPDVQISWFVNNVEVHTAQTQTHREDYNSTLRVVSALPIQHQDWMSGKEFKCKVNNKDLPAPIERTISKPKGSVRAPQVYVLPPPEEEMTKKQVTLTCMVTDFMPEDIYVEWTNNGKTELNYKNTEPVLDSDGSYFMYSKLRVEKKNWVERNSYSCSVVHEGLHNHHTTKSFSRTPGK

T2: recombinant cynomolgus monkey PD-1 expressed with a C-terminal myc-myc-hexahistidine tag (cynomolgus monkey)
T2 construct: also called MfPD-1-MMH; MIPD-1-MMH
T2 chain: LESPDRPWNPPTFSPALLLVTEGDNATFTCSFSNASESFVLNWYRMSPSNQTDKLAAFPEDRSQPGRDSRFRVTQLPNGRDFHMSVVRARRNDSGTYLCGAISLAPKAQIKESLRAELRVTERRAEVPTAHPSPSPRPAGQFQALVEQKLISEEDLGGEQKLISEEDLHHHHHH


Tests used:
[1] = target: PD-1 chimera hPD1-hCD300a on Jurkat/AP1-Luc cells (human); test: cell-based or functional assay
[2] = target: T3, recombinant human PD-1 dimer expressed with a C-terminal mouse IgG2a Fc tag (hPD-1-mFc) (human); test: BLI Octet Red 96, captured hPD-L1-hFc
T3 construct: also called human PD-1-mFc

[3] = target: recombinant human PD-1 expressed with a C-terminal human IgG1 Fc tag (hPD-1-hFc) (human); test: SPR Biacore 3000, captured hPD-L1-mFc
Chain of recombinant human PD-1 expressed with a C-terminal human IgG1 Fc tag (hPD-1-hFc) (human) (chain, as listed by the source limits assumed): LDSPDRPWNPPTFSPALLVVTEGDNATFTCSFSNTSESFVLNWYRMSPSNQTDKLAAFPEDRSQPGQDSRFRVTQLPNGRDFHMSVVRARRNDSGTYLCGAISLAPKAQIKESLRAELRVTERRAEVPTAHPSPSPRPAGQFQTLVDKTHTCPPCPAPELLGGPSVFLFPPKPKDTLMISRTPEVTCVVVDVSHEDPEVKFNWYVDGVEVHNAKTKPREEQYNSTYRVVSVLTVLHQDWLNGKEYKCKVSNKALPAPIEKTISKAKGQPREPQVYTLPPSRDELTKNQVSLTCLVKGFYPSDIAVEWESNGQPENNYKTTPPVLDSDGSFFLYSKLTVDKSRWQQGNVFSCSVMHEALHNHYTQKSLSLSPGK

[4] = target: T1, monkey PD-1 with mFc (monkey PD-1-mFc); test: SPR 37C, mAb captured;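 further: Real-time binding of antigen to purified anti-PD-1 antibodies, measured by surface plasmon resonance on a Biacore 4000 or T200 instrument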
[5] = target: T1, monkey PD-1 with mFc (monkey PD-1-mFc); test: SPR 25C, mAb captured
[6] = target: T2, recombinant cynomolgus monkey PD-1 …; test: SPR Biacore, mAb captured, 37 C
[7] = target: T2, recombinant cynomolgus monkey PD-1 …; test: SPR Biacore, mAb captured, 25 C
[8] = target: T3, recombinant human PD-1 dimer expressed …; test: competition ELISA, 1.5 nM hPD-1-mFc, coated hPD-L1-hFc
[9] = target: T4, human PD-1 dimer (human PD-1-mFc or human PD-1-hFc) (human, Fc-mediated homodimer; one copy of the chain is given.); test: SPR Biacore, mAb captured, 25 C
T4 construct: also called hPD-1-mFc; hPD1-hFc; not shown: The C-terminal Fc tag
T4 sequence (chain, as listed by the source limits assumed): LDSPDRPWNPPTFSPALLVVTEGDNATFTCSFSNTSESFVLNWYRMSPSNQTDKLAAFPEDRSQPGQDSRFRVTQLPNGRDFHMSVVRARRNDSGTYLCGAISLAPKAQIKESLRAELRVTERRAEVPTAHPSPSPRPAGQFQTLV

[10] = target: T3, recombinant human PD-1 dimer expressed …; test: competition ELISA, 1.5 nM hPD-1-mFc, coated hPD-L1-hFc; * below assay bottom
[11] = target: T4, human PD-1 dimer (human PD-1-mFc or …); test: SPR Biacore, mAb captured, 37 C
[12] = target: T5, polyclonal rabbit anti-mouse antibody (GE Catalog #BR-1008-38) coupled to the CM5 Biacore sensor surface (rabbit); test: SPR Biacore 3000, antibody alone over the anti-mouse Fc capture surface of the hPD-L1-mFc assay (background control)
T5 construct: also called anti-mouse Fc capture surface

[13] = target: T6, recombinant human PD-1 expressed with a C-terminal myc-myc-hexahistidine tag (human); test: SPR Biacore, mAb captured, 37 C
T6 construct: monomeric reagent; also called hPD-1-MMH; human PD-1-MMH

| Binder | binding of the mixture of 100 nM hPD-1-hFc and 500 nM antibody [3] [RU] | 100 nM Monkey PD-1-mFc Bound [4] [RU] | t½ [4] [min] | 100 nM Monkey PD-1-mFc Bound [5] [RU] | t½ [5] [min] | also measured |
| --- | --- | --- | --- | --- | --- | --- |
| H2aM7780N (antibody, mouse IgG2a, V domains shown, mouse IgG2a Fc; human variable regions; also called H2M7780N) VH: QVQLVESGGGVVQSGRSLRLSCAASGFTFSSYGMHWVRQAPGKGLEWVAVIWYDGSNIYYSDSVKGRFTISRANSKNTLYLQMNSLRAEDTAVYYCARPGHWNYFFEYWGQGTLVTVSS VL: DIQMTQSPSSLSASVGDRVTITCRASQSINNYLNWYQQKPGKAPKLLIYTASSLQSGVPSRFSGSGSGTDFTLTISSLQPEDFATYYCQQSYSTPPLTFGQGTQLEIK |  |  |  |  |  | Concentration (M) of Antibody at 150% activation [1]: 6.62e-09 M; binding of the mixture of 100 nM hPD-1-mFc and 500 nM antibody [2]: -0.01 nm |
| H4xH9135P2 (antibody, V domains shown, human IgG4 Fc with 2 or more amino acid changes (US20100331527)) VH: EVQLVESGGSVVRPGGSLRLSCVVSGFTFEDYGLSWVRQIPGKGLEWVSGISWTGGNTGYADSVKGRFTISRDNAKNSLYLQMNSLRAEDTALYHCTRDRQWLMQWYFDYWGQGTLVTVSS VL: not shown | -3 | 52 | 15 | 74 | 81 |  |
| H4xH9145P2 (antibody, V domains shown, human IgG4 Fc with 2 or more amino acid changes (US20100331527)) VH: QVQLVESGGGVVQPGRSLRLSCSASGFTFSAYAMHWVRQAPGKGLEWVAAISYGGSDKYYADSVKGRFTISRDNSKNTLYLQMNSLRTDDTAVYYCAKSAHWNFFFDYWGQGTLVTVSS VL: not shown | -6 | 94 | 19 | 84 | 77 |  |
| H2aM7788N (antibody, mouse IgG2a, V domains shown, human variable regions with mouse IgG2a Fc (H2aM prefix); also called H2M7788N; H2aM7788M) VH: EVQLVESGGGLVQPGGSLRLSCGASGFTFRNYDMHWVRQITGKGLEWVSAIGSAGDTYYPDSVKGRFTISRENAKNSLYLQMNSLRVGDTAVYYCTRDIHCSSTRCYGMDVWGQGTTVTVSS VL: not shown |  |  |  |  |  | t½ [6]: 3.6 min; kon [7]: 8530 M⁻¹ s⁻¹ |
| H4H9019P (antibody, human IgG4, V domains shown, human IgG4 Fc; also called H4xH9019P) VH: EVQLVESGGGVVRPGGSLRLSCAASGFTFDDYGMSWVRQVPGKGLEWVSGISWNDGKTVYAESVKGRFIISRDNAKNSLYLEMNSLRAEDTALYYCARDWQYLIERYFDYWGQGTLVTVSS VL: not shown | -1 | 36 | 45 | 31 | 129 | % blocking at 200 nM antibody [8]: 96% |
| H4xH9008P (antibody, V domains shown, human IgG4 Fc with 2 or more amino acid changes as in US20100331527 (H4xH prefix); also called H4x19008P) VH: EVQLVESGGGLVRPGGSLRLSCAASGFTFSTYAMAWVRQTPGKGLEGVSAIGGSGDSTYYVDSVKGRFTISRDNSKSTLFLQMNSLRAEDTAVYYCVKVRNYDGSFDIWGQGTMVTVSS VL: not shown |  |  |  |  |  | Kd [9]: 786 pM |
| H4xH9034P (antibody, V domains shown) VH: EVQLVESGGGVVRPGGSLRLSCTASGFTFDDYGMSWVRQAPGKGLEWISGIGWTGGRSSYADSVRGRFTISRDNAKNSLYLQMNSLGAEDTALYYCARDRQWLVQWYFDYWGQGTLVTVSS VL: not shown |  | 81 | 15 | 95 | 70 | IC50 [10]: < 750 pM |
| H4xH9034P (antibody, V domains shown, human IgG4 Fc with 2 or more amino acid changes as in US20100331527 (H4xH prefix); also called H4xH9034P2; H4xH8034P2) VH: EVQLVESGGGVVRPGGSLRLSCTASGFTFDDYGMSWVRQAPGKGLEWISGIGWTGGRSSYADSVRGRFTISRDNAKNSLYLQMNSLGAEDTALYYCARDRQWLVQWYFDYWGQGTLVTVSS VL: not shown |  |  |  |  |  | t½ [6]: 0.6 min |
| H2aM7794N (antibody, V domains shown, human variable regions with mouse IgG2a Fc (H2aM prefix); also called H2M7794N) VH: QLQLQESGPDLVKPSDTLSLTCTVSDDSISSTTYYWAWIRQPPGKGLEWIGSMSYNGNNYYNPSLKSRVAISAGTSQKQFSLKLTSVTAADTAVYHCARHLGYNGNWYPFDFWGQGILVTVSS VL: not shown |  |  |  |  |  | t½ [11]: 65 min |
| H4xH9119P2 (antibody, V domains shown, human IgG4 Fc with 2 or more amino acid changes as in US20100331527 (H4xH prefix)) VH: EVQLVESGGGLVQPGRSLRLSCAASGFTFEDYAMHWVRQAPGKGLEWVSGIGWSNVKIGYADSVKGRFTISRDNVRNSLYLQMNSLRTEDTAFYYCVKAYTSMLTLYFDYWGQGTLVTVSS VL: not shown |  |  |  |  |  | koff [9]: 0.000152 s⁻¹ |
| H4H7798N (antibody, human IgG4, V domains shown, human IgG4 Fc; also called M4H7798N; HAH7798N) VH: EVQLLESGGVLVQPGGSLRLSCAASGFTFSNFGMTWVRQAPGKGLEWVSGISGGGRDTYFADSVKGRFTISRDNSKNTLYLQMNSLKGEDTAVYYCVKWGNIYFDYWGQGTLVTVSS VL: DIQMTQSPSSLSASVGDSITITCRASLSINTFLNWYQQKPGKAPNLLIYAASSLHGGVPSRFSGSGSGTDFTLTIRTLQPEDFATYYCQQSSNTPFTFGPGTVVDFRR |  |  |  |  |  | Kd [7]: 3800 pM |
| H4H9048P2 (antibody, human IgG4 S228P, kappa, V domains shown, human IgG4 Fc) VH: QVQLVQSGAEVKRPGSSVKVSCKVSGVTFRNFAIIWVRQAPGQGLEWMGGIIPFFSAANYAQSFQGRVTITPDESTSTAFMELASLRSEDTAVYYCAREGERGHTYGFDYWGQGTLVTVSS VL: not shown | 9 |  |  |  |  | % Blocking [3]: 91%; 500 nM of anti-PD-1 monoclonal antibody (RU) [12]: -7 RU |
| H2aM7796N (antibody, mouse IgG2a, V domains shown, mouse IgG2a Fc; also called H2M7796N) VH: QVQLVESGGGVVQPGRSLRLSCAASGFTFSSYGMHWVRQAPGKGLEWVAIIWSDGDSEYNLDSVKGRFTISRDNSKNTLYLQMNSLRVEDSAVYYCARDRDLEDIWGQGTMVTVSS VL: DIQMTQSPSSLSASVGDRVTITCRASQGIRNDLGWYQQKPGKAPKRLIYAASNLQSGVPSRFSGSGSGTEFTLTISSLQPEDFATYYCLQHNSYPLTFGGGTKVEIK |  |  |  |  |  | binding result [7]: no binding (tested: 200 nM) |
| H4xH9120P2 (antibody, V domains shown, human IgG4 Fc with 2 or more amino acid changes (US20100331527)) VH: QVQLVQSGAEVKRPGASVKVSCKASGYTFTSFYMYWVRQAPGQGLEWMGIINPSDGSTSNAQKFQGRVTMTRDTSTSTVYMELSSLRSEDTAVYYCARRVAGDIFDIWGQGTMVTVSS VL: not shown | 0 | 46 | 23 | 52 | 104 |  |
| H4xH9120P2 (antibody, V domains shown, human IgG4 Fc with 2 or more amino acid changes as in US20100331527 (H4xH prefix)) VH: QVQLVQSGAEVKRPGASVKVSCKASGYTFTSFYMYWVRQAPGQGLEWMGIINPSDGSTSNAQKFQGRVTMTRDTSTSTVYMELSSLRSEDTAVYYCARRVAGDIFDIWGQGTMVTVSS VL: not shown |  |  |  |  |  | kon [13]: 68600 M⁻¹ s⁻¹ |
| H4xH9128P2 (antibody, V domains shown, human IgG4 Fc with 2 or more amino acid changes (US20100331527)) VH: QVQLQESGPGLVKPSETLSLTCTVSGGSISSYHWNWIRQSPGKGLEWIGYIYYIGSTDYNPSLESRVTISVDTSKNQFSLKLSSVTAADTAVYYCARVPVGATGASDVWGQGTMVTVSS VL: not shown | -5 | 60 | 14 | 64 | 94 |  |
